Measured values from publication PMC3605307 (PLoS Pathogens, 2013).

What was measured:
Assay in all cases: SPR
[1] = molecular target: T1, Human TRAIL-R2 ectodomain (residues 58–184), released from the Fc fusion (human, UniProt O14763 58-184, selenomethionine (only in the labelled complex of the derivative crystals)); conditions: both partners purified
T1 construct: also called DR5; TRAIL-R2 receptor; not shown: Fc (human IgG1), C-terminal, cleaved

[2] = molecular target: T2, TRAIL (TNF-related apoptosis inducing ligand) ectodomain (UniProt P50591 39-281); conditions: one partner purified
T2 construct: also called TNFSF10; Apo2L

[3] = molecular target: T3, TRAIL (TNF-related apoptosis inducing ligand) ectodomain (UniProt P50591 39-281); conditions: one partner purified; remark: listed apart in the source
T3 construct: also called TNFSF10; Apo2L

Binder | Kd [2] | koff [2] | kon [2] | further results
UL141-Fc fusion protein (Fc fusion) DIAEKMWAENYETTSPAPVLVAEGEQVTIPCTVMTHSWPMVSIRARFCRSHDGSDELILDAVKGHRLMNGLQYRLPYATWNFSQLHLGQIFSLTFNVSTDTAGMYECVLRNYSHGLIMQRFVILTQLETLSRPDEPCCTPALGRYSLGDQIWSPTPWRLRNHDCGMYRGFQRNYFYIGRADAEDCWKPACPDEEPDRCWTVIQRYRLPGDCYRSQPHPPKFLPVTPAPPADIDTGMS |  |  |  | Kd [1]: 21.4 nM; koff [1]: 0.00564 s⁻¹; kon [1]: 264000 M⁻¹ s⁻¹
human TRAIL-R2-Fc D148A (Fc fusion, source: Sf9 insect cells, culture supernatant; not shown: Fc (human IgG1), C-terminal, kept) QQDLAPQQRAAPQQKRSSPSEGLCPPGHHISEDGRDCISCKYGQDYSTHWNDLLFCLRCTRCDSGEVELSPCTTTRNTVCQCEEGTFREEASPEMCRKCRTGCPRGMVKVGDCTPWSDIECVHKESG | 4.48 nM | 3.58e-05 s⁻¹ | 8000 M⁻¹ s⁻¹ | 
Human TRAIL-R2-Fc K155A (Fc fusion, source: Sf9, culture supernatant used for SPR; not shown: Fc (human IgG1), C-terminal, kept) QQDLAPQQRAAPQQKRSSPSEGLCPPGHHISEDGRDCISCKYGQDYSTHWNDLLFCLRCTRCDSGEVELSPCTTTRNTVCQCEEGTFREEDSPEMCRACRTGCPRGMVKVGDCTPWSDIECVHKESG |  |  |  | Kd [3]: 40 nM
human TRAIL-R2-Fc M152A (Fc fusion, source: Sf9 insect cells, culture supernatant; not shown: Fc (human IgG1), C-terminal, kept) QQDLAPQQRAAPQQKRSSPSEGLCPPGHHISEDGRDCISCKYGQDYSTHWNDLLFCLRCTRCDSGEVELSPCTTTRNTVCQCEEGTFREEDSPEACRKCRTGCPRGMVKVGDCTPWSDIECVHKESG | 202 nM | 0.000678 s⁻¹ | 3350 M⁻¹ s⁻¹ | 
Human TRAIL-R2-Fc M152A (Fc fusion, also called TRAIL-R2 M152A mutant; source: Sf9, culture supernatant used for SPR; not shown: Fc (human IgG1), C-terminal, kept) QQDLAPQQRAAPQQKRSSPSEGLCPPGHHISEDGRDCISCKYGQDYSTHWNDLLFCLRCTRCDSGEVELSPCTTTRNTVCQCEEGTFREEDSPEACRKCRTGCPRGMVKVGDCTPWSDIECVHKESG |  |  |  | Kd [3]: 202 nM
human TRAIL-R2-Fc P150A (Fc fusion, source: Sf9 insect cells, culture supernatant; not shown: Fc (human IgG1), C-terminal, kept) QQDLAPQQRAAPQQKRSSPSEGLCPPGHHISEDGRDCISCKYGQDYSTHWNDLLFCLRCTRCDSGEVELSPCTTTRNTVCQCEEGTFREEDSAEMCRKCRTGCPRGMVKVGDCTPWSDIECVHKESG | 4.29 nM | 9.02e-06 s⁻¹ | 2100 M⁻¹ s⁻¹ | 
human TRAIL-R2-Fc K155A (Fc fusion, source: Sf9 insect cells, culture supernatant; not shown: Fc (human IgG1), C-terminal, kept) QQDLAPQQRAAPQQKRSSPSEGLCPPGHHISEDGRDCISCKYGQDYSTHWNDLLFCLRCTRCDSGEVELSPCTTTRNTVCQCEEGTFREEDSPEMCRACRTGCPRGMVKVGDCTPWSDIECVHKESG | 39.7 nM | 0.000138 s⁻¹ | 3480 M⁻¹ s⁻¹ | 
